Test results published in article PMC4410396 (Acta Naturae, 2015).

T1: MorFDH (Moraxella sp., UniProt O08375, A199G)
T1 construct: gene fdh; recombinant, plasmid pMorFDH2, E. coli BL21(DE3)/pLysS; no tag mentioned; Phenyl Sepharose and Sephadex G-25
T1 sequence (O08375 2-402 A199G): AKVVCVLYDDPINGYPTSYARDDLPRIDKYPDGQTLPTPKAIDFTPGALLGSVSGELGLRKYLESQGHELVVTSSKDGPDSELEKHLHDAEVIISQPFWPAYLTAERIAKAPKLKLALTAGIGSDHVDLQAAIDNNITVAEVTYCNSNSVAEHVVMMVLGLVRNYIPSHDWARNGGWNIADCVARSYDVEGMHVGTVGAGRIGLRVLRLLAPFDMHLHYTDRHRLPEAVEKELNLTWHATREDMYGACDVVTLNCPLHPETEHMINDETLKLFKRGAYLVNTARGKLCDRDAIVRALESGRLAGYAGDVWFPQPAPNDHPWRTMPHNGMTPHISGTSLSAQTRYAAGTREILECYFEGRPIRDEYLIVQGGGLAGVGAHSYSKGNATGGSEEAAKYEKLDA

B1: PseFDH (Pseudomonas sp. 101) (protein)
chain: AKVLCVLYDDPVDGYPKTYARDDLPKIDHYPGGQTLPTPKAIDFTPGQLLGSVSGELGLRKYLESNGHTLVVTSDKDGPDSVFERELVDADVVISQPFWPAYLTPERIAKAKNLKLALTAGIGSDHVDLQSAIDRNVTVAEVTYCNSISVAEHVVMMILSLVRNYLPSHEWARKGGWNIADCVSHAYDLEAMHVGTVAAGRIGLAVLRRLAPFDVHLHYTDRHRLPESVEKELNLTWHATREDMYPVCDVVTLNCPLHPETEHMINDETLKLFKRGAYIVNTARGKLCDRDAVARALESGRLAGYAGDVWFPQPAPKDHPWRTMPYNGMTPHISGTTLTAQARYAAGTREILECFFEGRPIRDEYLIVQGGALAGTGAHSYSKGNATGGSEEAAKFKKAV
notes: recombinant, plasmid pPseFDH8, E. coli BL21(DE3)/pLysS; no tag mentioned; Phenyl Sepharose and Sephadex G-25

Legend:
MorFDH = biological target: T1, MorFDH; assay: spectrophotometric NAD(P)H formation at […] nm; format: biochemical; settings: saturating formate (>15 KM); 0.1 M sodium phosphate pH 7.0, 30°C; read-out: KMKNAD^+
[1] = tested on: T2, NC(=O)c1ccc[n+]([C@@H]2O[C@H](COP(=O)(O)OP(=O)(O)OC[C@H]3O[C@@H](n4cnc5c(N)ncnc54)[C@H](O)[C@@H]3O)[C@@H](O)[C@H]2O)c1; assay: purified protein; format: biochemical, Pseudomonas sp. 101; settings: saturating formate (>15 KM), 0.1 M sodium phosphate pH 7.0, 30°C
T2 construct: recombinant, plasmid pPseFDH8, E. coli BL21(DE3)/pLysS; no tag mentioned; Phenyl Sepharose and Sephadex G-25

[2] = tested on: T3, NC(=O)c1ccc[n+]([C@@H]2O[C@H](COP(=O)(O)OP(=O)(O)OC[C@H]3O[C@@H](n4cnc5c(N)ncnc54)[C@H](OP(=O)(O)O)[C@@H]3O)[C@@H](O)[C@H]2O)c1; assay: purified protein; format: biochemical, Pseudomonas sp. 101; settings: saturating formate (>15 KM), 0.1 M sodium phosphate pH 7.0, 30°C
T3 construct: recombinant, plasmid pPseFDH8, E. coli BL21(DE3)/pLysS; no tag mentioned; Phenyl Sepharose and Sephadex G-25

purified protein = substrate: NC(=O)c1ccc[n+]([C@@H]2O[C@H](COP(=O)(O)OP(=O)(O)OC[C@H]3O[C@@H](n4cnc5c(N)ncnc54)[C@H](OP(=O)(O)O)[C@@H]3O)[C@@H](O)[C@H]2O)c1; assay: purified protein; format: biochemical, Pseudomonas sp. 101; settings: saturating formate (>15 KM), 0.1 M sodium phosphate pH 7.0, 30°C, printed with an asterisk

Row | Molecule | Km [1] | kcat [1] | other results
1 | NC(=O)c1ccc[n+]([C@@H]2O[C@H](COP(=O)(O)OP(=O)(O)OC[C@H]3O[C@@H](n4cnc5c(N)ncnc54)[C@H](O)[C@@H]3O)[C@@H](O)[C@H]2O)c1 [NAD^+] |  |  | Km (MorFDH): 45 ± 3 µM
2 | PseFDH (Pseudomonas sp. 101; A199G) | 35 ± 2 µM |  | 
3 | PseFDH (Pseudomonas sp. 101; A199G/D222S) | 540 ± 42 µM | 5.0 ± 0.2 s⁻¹ | Km [2]: 280 ± 25 µM; kcat [2]: 1.8 ± 0.2 s⁻¹
4 | PseFDH (Pseudomonas sp. 101; D222S) | 710 ± 45 µM | 5.0 ± 0.3 s⁻¹ | 
5 | B1 |  |  | kcat (purified protein): 1.3 ± 0.1 s⁻¹
